According to patent US20250320312A1 (OXITOPE PHARMA B V, published 2025):

T1: Peptide 4: Biotin-AGGGGSGGGGSGGGGSAAA-Tyr-acid (N-terminal biotin; C-terminal acid)
T1 construct: control peptide without PC
T1 peptide: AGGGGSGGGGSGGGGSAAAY

T2: Peptide 8: Biotin-AEAAAKEAAAKEAAAKEAAAKAAA-Tyr-acid (N-terminal biotin; C-terminal acid)
T2 construct: control peptide without PC
T2 peptide: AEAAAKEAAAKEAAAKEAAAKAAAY


Assays:
Assay in all cases: scFv ELISA
BSA = BSA (UniProt P02769)
[1] = target: Peptide 1: Biotin-…-[Tyr(PC)]-acid
[2] = target: Peptide 5: Biotin-…-[Tyr(PC)]-acid
[3] = target: T1, Peptide 4: …
Method: (§1) For ELISA analysis of scFv binding, 96-well polystyrene plates were coated with Peptide 1, 4, 5, 8 or 100 μL BSA (10 μg/mL) in PBS at 4° C. overnight. Plates were washed three times with PBS-Tween and blocked with 100 μL 1% BSA-TBS for 1 hour at room temperature. 96-well streptavidin coated plates were coated with 100 μL biotinylated PC-peptides (1 μg/mL) in PBS for 1 hour at room temperature.
(§2) All plates were washed three times with PBS-Tween before 40 μL aliquots of PPE were added to assay plates along with 50 μL 10% BSA, and plates were incubated for 1 hour at room temperature. After washing, […] HRP conjugated anti-V5 in 5% BSA was added, and plates were incubated at room temperature for 30 mins. Plates were washed and 100 μL TMB substrate was added. Color was left to develop at room temperature before the reaction was stopped with 100 μL 1N HCl. The amount of scFv bound to each well was quantitated from absorbance measurement at 450 nm (OD450).

[4] = target: T2, Peptide 8: …
Method: as §1, §2

Chain of BSA (P02769 25-607 limits assumed): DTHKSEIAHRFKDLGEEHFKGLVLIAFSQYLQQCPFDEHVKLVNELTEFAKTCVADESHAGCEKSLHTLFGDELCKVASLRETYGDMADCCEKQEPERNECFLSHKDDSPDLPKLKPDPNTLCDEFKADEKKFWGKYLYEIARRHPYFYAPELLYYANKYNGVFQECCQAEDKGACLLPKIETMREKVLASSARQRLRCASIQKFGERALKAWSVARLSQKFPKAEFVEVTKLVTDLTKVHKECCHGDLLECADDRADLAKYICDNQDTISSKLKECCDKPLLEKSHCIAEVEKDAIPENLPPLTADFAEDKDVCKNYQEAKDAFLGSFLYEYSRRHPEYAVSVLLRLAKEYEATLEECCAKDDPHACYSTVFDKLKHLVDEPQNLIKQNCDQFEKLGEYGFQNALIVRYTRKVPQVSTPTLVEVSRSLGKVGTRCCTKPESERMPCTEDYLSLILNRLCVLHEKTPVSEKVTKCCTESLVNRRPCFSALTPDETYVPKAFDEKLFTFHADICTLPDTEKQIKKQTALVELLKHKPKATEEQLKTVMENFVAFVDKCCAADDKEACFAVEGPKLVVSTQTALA

OD450 (BSA)	OD450 [1]	OD450 [2]	OD450 [3]	OD450 [4]	Binder
0.11 OD450	1.07 OD450	1.36 OD450	0.06 OD450	0.05 OD450	PcOxP_DB01_B07 (scFv, V domains shown, scFv in periplasmic extract) VH: EVQLLESGGGLVQPGGSLRLSCAASGFTFSDYYMEWVRQAPGKGLEWVAASRNKANDYTTEYADSVKGRFTISRDNSKNTLYLQMNSLRAEDTAVYYCARDYYGSSYWYFDVWGQGTLVTVSS VL: DIQMTQSPSSLSASVGDRVTITCTASESLYSSKHKVHYLAWYQQKPGKAPKLLIYGASNRYIGVPSRFSGSGSGTDFTLTISSLQPEDFATYYCAQFYSYPLTFGGGTKVEIK
0.09 OD450	1.11 OD450	1.32 OD450	0.05 OD450	0.04 OD450	PcOxP_DB01_B11 (scFv, V domains shown, scFv in periplasmic extract) VH: EVQLLESGGGLVQPGGSLRLSCAASGFTFEDFYMEWVRQAPGKGLEWVAASRNKANDYTTEYADSVKGRFTISRDNSKNTLYLQMNSLRAEDTAVYYCARDYFGSSYWYFDVWGQGTLVTVSS VL: DIQMTQSPSSLSASVGDRVTITCTASESLYSSKHKVHYLAWYQQKPGKAPKLLIYGASNRYHGVPSRFSGSGSGTDFTLTISSLQPEDFATYYCAQFYSYPLTFGGGTKVEIK
0.1 OD450	0.74 OD450	1.18 OD450	0.06 OD450	0.06 OD450	PcOxP_DB01_A06 (scFv, V domains shown, scFv in periplasmic extract) VH: EVQLLESGGGLVQPGGSLRLSCAASGFTFSDYYMEWVRQAPGKGLEWVAASRNKANDYTTEYADSVKGRFTISRDNSKNTLYLQMNSLRAEDTAVYYCARDYYGSSYWYFDVWGQGTLVTVSS VL: DIQMTQSPSSLSASVGDRVTITCTASESLYSSKHKVHYLAWYQQKPGKAPKLLIYGASNRYIGVPSRFSGSGSGTDFTLTISSLQPEDFATYYCAEFYSYPLTFGGGTKVEIK
0.09 OD450	0.29 OD450	1.04 OD450	0.06 OD450	0.05 OD450	PcOxP_DB01_A12 (scFv, V domains shown, scFv in periplasmic extract) VH: EVQLLESGGGLVQPGGSLRLSCAASGFGFSDFYMEWVRQAPGKGLEWVAASRNKWNDYTTEYADSVKGRFTISRDNSKNTLYLQMNSLRAEDTAVYYCARDYYGSSYWYYDVWGQGTLVTVSS VL: DIQMTQSPSSLSASVGDRVTITCTASESLYSSKHKVHYLAWYQQKPGKAPKLLIYGASNREIGVPSRFSGSGSGTDFTLTISSLQPEDFATYYCQQFYSYPLTFGGGTKVEIK
0.1 OD450	0.98 OD450	1.37 OD450	0.06 OD450	0.05 OD450	PcOxP_DB01_C03 (scFv, V domains shown, scFv in periplasmic extract) VH: EVQLLESGGGLVQPGGSLRLSCAASGFTFSDQYMEWVRQAPGKGLEWVAASRNKANDYTTEYADSVKGRFTISRDNSKNTLYLQMNSLRAEDTAVYYCARDYYGSSYWYFDVWGQGTLVTVSS VL: DIQMTQSPSSLSASVGDRVTITCTASESLYSSKHKVHYLAWYQQKPGKAPKLLIYGASNRYIGVPSRFSGSGSGTDFTLTISSLQPEDFATYYCAQFYQYPLTFGGGTKVEIK
0.11 OD450	0.71 OD450	1.13 OD450	0.06 OD450	0.05 OD450	PcOxP_DB01_C01 (scFv, V domains shown, scFv in periplasmic extract) VH: EVQLLESGGGLVQPGGSLRLSCAASGFTFSDFYMEWVRQAPGKGLEWVAASRNKANDYTTEYADSVKGRFTISRDNSKNTLYLQMNSLRAEDTAVYYCARDYYGSSYWYFDVWGQGTLVTVSS VL: DIQMTQSPSSLSASVGDRVTITCVASESLYSSKHKVHYLAWYQQKPGKAPKLLIYGASNRYIGVPSRFSGSGSGTDFTLTISSLQPEDFATYYCAQFYSYPLTFGGGTKVEIK
0.1 OD450	0.87 OD450	0.9 OD450	0.07 OD450	0.05 OD450	PcOxP_DB01_B01 (scFv, V domains shown, scFv in periplasmic extract) VH: EVQLLESGGGLVQPGGSLRLSCAASGFTFSDQYIEWVRQAPGKGLEWVAASRNKANDYTTEYADSVKGRFTISRDNSKNTLYLQMNSLRAEDTAVYYCARDYLGSSYWYFDVWGQGTLVTVSS VL: DIQMTQSPSSLSASVGDRVTITCTASESLYSSKHKVHYLAWYQQKPGKAPKLLIYGASHRYIGVPSRFSGSGSGTDFTLTISSLQPEDFATYYCAQFYAYPLTFGGGTKVEIK
0.08 OD450	1.38 OD450	1.42 OD450	0.05 OD450	0.05 OD450	PcOxP_DB01_C04 (scFv, V domains shown, scFv in periplasmic extract) VH: EVQLLESGGGLVQPGGSLRLSCAASGFQFSDFYMEWVRQAPGKGLEWVAASRNKANDYTTEYADSVKGRFTISRDNSKNTLYLQMNSLRAEDTAVYYCARDYYGSSYWYFDVWGQGTLVTVSS VL: DIQMTQSPSSLSASVGDRVTITCTASESLYSSKHKVHYLAWYQQKPGKAPKLLIYGASNRYIGVPSRFSGSGSGTDFTLTISSLQPEDFATYYCAQFYYYPLTFGGGTKVEIK
0.1 OD450	0.41 OD450	0.89 OD450	0.06 OD450	0.05 OD450	PcOxP_DB01_B08 (scFv, V domains shown, scFv in periplasmic extract) VH: EVQLLESGGGLVQPGGSLRLSCAASGFTFSDSYMEWVRQAPGKGLEWVAASRNKANDYTTSYADSVKGRFTISRDNSKNTLYLQMNSLRAEDTAVYYCARDYYGSSYWYFDVWGQGTLVTVSS VL: DIQMTQSPSSLSASVGDRVTITCTASESLYSSKHKVHYLAWYQQKPGKAPKLLIYGASNRYIGVPSRFSGSGSGTDFTLTISSLQPEDFATYYCAQFYSYPLTFGGGTKVEIK
0.1 OD450	1 OD450	1.42 OD450	0.05 OD450	0.05 OD450	PcOxP_DB01_B09 (scFv, V domains shown, scFv in periplasmic extract) VH: EVQLLESGGGLVQPGGSLRLSCAASGFTFSDYYMEWVRQAPGKGLEWVAASRNKANDYTTEYADSVKGRFTISRDNSKNTLYLQMNSLRAEDTAVYYCARDYYGSSYWYFDVWGQGTLVTVSS VL: DIQMTQSPSSLSASVGDRVTITCTASESLYSSKHKVHYLAWYQQKPGKAPKLLIYGASNRYTGVPSRFSGSGSGTDFTLTISSLQPEDFATYYCAQFYHYPLTFGGGTKVEIK
0.1 OD450	0.23 OD450	0.74 OD450	0.05 OD450	0.05 OD450	PcOxP_DB01_B05 (scFv, V domains shown, scFv in periplasmic extract) VH: EVQLLESGGGLVQPGGSLRLSCAASGFTASDFYMEWVRQAPGKGLEWVAASRNKWNDYTTEYADSVKGRFTISRDNSKNTLYLQMNSLRAEDTAVYYCARDYYGSSYWYFDVWGQGTLVTVSS VL: DIQMTQSPSSLSASVGDRVTITCTASESLYSSKHKVHYLAWYQQKPGKAPKLLIYGASSLQIGVPSRFSGSGSGTDFTLTISSLQPEDFATYYCAQFYSYPLTFGGGTKVEIK
0.08 OD450	0.57 OD450	1.02 OD450	0.06 OD450	0.05 OD450	PcOxP_DB01_B04 (scFv, V domains shown, scFv in periplasmic extract) VH: EVQLLESGGGLVQPGGSLRLSCAASGFTFSDGYMEWVRQAPGKGLEWVAASRNKANDYTTEYADSVKGRFTISRDNSKNTLYLQMNSLRAEDTAVYYCARDYYGSSYWYFDVWGQGTLVTVSS VL: DIQMTQSPSSLSASVGDRVTITCTASESLYSSKHKVHYLAWYQQKPGKAPKLLIYGASNRYIGVPSRFSGSGSGTDFTLTISSLQPEDFATYYCAQFYSYPLTFGGGTKVEIK
0.11 OD450	0.79 OD450	1.11 OD450	0.06 OD450	0.06 OD450	PcOxP_DB01_C05 (scFv, V domains shown, scFv in periplasmic extract) VH: EVQLLESGGGLVQPGGSLRLSCAASGFTFSDGYMEWVRQAPGKGLEWVAASRNKANDYTTEYADSVKGRFTISRDNSKNTLYLQMNSLRAEDTAVYYCARDYYGSSYWYFDVWGQGTLVTVSS VL: DIQMTQSPSSLSASVGDRVTITCTASESLYSSKHKVHYLAWYQQKPGKAPKLLIYGSSNRYIGVPSRFSGSGSGTDFTLTISSLQPEDFATYYCAQFYAYPLTFGGGTKVEIK
